{
  "source": "IntAct's records for PubMed 26900326",
  "parents": {"B1": {"name": "Molecular chaperone MKKS (Homo sapiens), Q9NPJ1 (parent)", "chain": "MSRLEAKKPSLCKSEPLTTERVRTTLSVLKRIVTSCYGPSGRLKQLHNGFGGYVCTTSQSSALLSHLLVTHPILKILTASIQNHVSSFSDCGLFTAILCCNLIENVQRLGLTPTTVIRLNKHLLSLCISYLKSETCGCRIPVDFSSTQILLCLVRSILTSKPACMLTRKETEHVSALILRAFLLTIPENAEGHIILGKSLIVPLKGQRVIDSTVLPGILIEMSEVQLMRLLPIKKSTALKVALFCTTLSGDTSDTGEGTVVVSYGVSLENAVLDQLLNLGRQLISDHVDLVLCQKVIHPSLKQFLNMHRIIAIDRIGVTLMEPLTKMTGTQPIGSLGSICPNSYGSVKDVCTAKFGSKHFFHLIPNEATICSLLLCNRNDTAWDELKLTCQTALHVLQLTLKEPWALLGGGCTETHLAAYIRHKTHNDPESILKDDECTQTELQLIAEAFCSALESVVGSLEHDGGEILTDMKYGHLWSVQADSPCVANWPDLLSQCGCGLYNSQEELNWSFLRSTRRPFVPQSCLPHEAVGSASNLTLDCLTAKLSGLQVAVETANLILDLSYVIEDKN", "partner": "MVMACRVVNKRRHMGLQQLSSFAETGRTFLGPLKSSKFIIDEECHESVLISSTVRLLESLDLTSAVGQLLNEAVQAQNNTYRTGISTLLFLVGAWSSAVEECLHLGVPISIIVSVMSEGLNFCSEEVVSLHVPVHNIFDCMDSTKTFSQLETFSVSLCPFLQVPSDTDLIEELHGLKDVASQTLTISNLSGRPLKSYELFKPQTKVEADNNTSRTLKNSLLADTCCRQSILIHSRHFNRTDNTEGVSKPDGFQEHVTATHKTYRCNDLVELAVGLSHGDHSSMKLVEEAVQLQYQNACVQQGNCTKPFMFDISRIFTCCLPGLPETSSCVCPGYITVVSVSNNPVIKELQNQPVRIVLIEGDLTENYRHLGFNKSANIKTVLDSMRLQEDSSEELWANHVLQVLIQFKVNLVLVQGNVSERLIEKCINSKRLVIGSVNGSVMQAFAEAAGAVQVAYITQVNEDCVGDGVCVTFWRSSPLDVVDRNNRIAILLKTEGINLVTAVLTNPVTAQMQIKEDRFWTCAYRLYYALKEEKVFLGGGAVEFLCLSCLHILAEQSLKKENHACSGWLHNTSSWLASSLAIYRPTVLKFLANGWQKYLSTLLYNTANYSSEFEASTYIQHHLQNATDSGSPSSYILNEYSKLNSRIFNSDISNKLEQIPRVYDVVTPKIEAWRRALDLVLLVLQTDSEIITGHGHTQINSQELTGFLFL"}},
  "data": [
    {"variants_of": "B1", "conditions": "with bbs12_human BBS12, Q6ZW61", "values": [
      {"variant": "MSRLEAKKPSLCKSEPLTTERVRTTLSVLKRIVTSCYGPSGRLKQLHNGFGGYVCTASQSSALLSHLLVTHPILKILTASIQNHVSSFSDCGLFTAILCCNLIENVQRLGLTPTTVIRLNKHLLSLCISYLKSETCGCRIPVDFSSTQILLCLVRSILTSKPACMLTRKETEHVSALILRAFLLTIPENAEGHIILGKSLIVPLKGQRVIDSTVLPGILIEMSEVQLMRLLPIKKSTALKVALFCTTLSGDTSDTGEGTVVVSYGVSLENAVLDQLLNLGRQLISDHVDLVLCQKVIHPSLKQFLNMHRIIAIDRIGVTLMEPLTKMTGTQPIGSLGSICPNSYGSVKDVCTAKFGSKHFFHLIPNEATICSLLLCNRNDTAWDELKLTCQTALHVLQLTLKEPWALLGGGCTETHLAAYIRHKTHNDPESILKDDECTQTELQLIAEAFCSALESVVGSLEHDGGEILTDMKYGHLWSVQADSPCVANWPDLLSQCGCGLYNSQEELNWSFLRSTRRPFVPQSCLPHEAVGSASNLTLDCLTAKLSGLQVAVETANLILDLSYVIEDKN", "note": "[T57A]", "effect of a mutation on the interaction": "disrupting interaction strength"},
      {"variant": "MSRLEAKKPSLCKSEPLTTERVRTTLSVLKRIVTSCYGPSGRLKQLHNGFGGYVCTTSQSSALLSHLLVTHPILKILTASIQNHVSSFSDCGLFTAILCCNLIENVQRLGLTPTTVIRLNKHLLSLCISYLKSETCGCRIPVDFSSTQILLCLVRSILTSKPACMLTRKETEHVSALILRAFLLTIPENAEGHIILGKSLIVPLKGQRVIDSTVLPGILIEMSEVQLMRLLPIKKSTALKVALFCTTLSGDTSDTGEGTVVVSYGVSLENAVLDQLPNLGRQLISDHVDLVLCQKVIHPSLKQFLNMHRIIAIDRIGVTLMEPLTKMTGTQPIGSLGSICPNSYGSVKDVCTAKFGSKHFFHLIPNEATICSLLLCNRNDTAWDELKLTCQTALHVLQLTLKEPWALLGGGCTETHLAAYIRHKTHNDPESILKDDECTQTELQLIAEAFCSALESVVGSLEHDGGEILTDMKYGHLWSVQADSPCVANWPDLLSQCGCGLYNSQEELNWSFLRSTRRPFVPQSCLPHEAVGSASNLTLDCLTAKLSGLQVAVETANLILDLSYVIEDKN", "note": "[L277P]", "effect of a mutation on the interaction": "decreasing interaction strength"},
      {"variant": "MSRLEAKKPSLCKSEPLTTERVRTTLSVLKRIVTSCYGPSGRLKQLHNGFGGYVCTTSQSSALLSHLLVTHPILKILTASIQNHVSSFSDCGLFTAILCCNLIENVQRLGLTPTTVIRLNKHLLSLCISYLKSETCGCRIPVDFSSTQILLCLVRSILTSKPACMLTRKETEHVSALILRAFLLTIPENAEGHIILGKSLIVPLKGQRVIDSTVLPGILIEMSEVQLMRLLPIKKSTALKVALFCTTLSGDTSDTGEGTVVVSYGVSLENAVLDQLLNLGRQLISDHVDLVLCQKVIHPSLKQFLNMHRIIAIDRIGVTLMEPLTKMTGTQPIGSLGSICPNSYGSVKDVCTAKFGSKHFFHLIPNEATICSLLLCNRNDTAWDELKLTCQTALRVLQLTLKEPWALLGGGCTETHLAAYIRHKTHNDPESILKDDECTQTELQLIAEAFCSALESVVGSLEHDGGEILTDMKYGHLWSVQADSPCVANWPDLLSQCGCGLYNSQEELNWSFLRSTRRPFVPQSCLPHEAVGSASNLTLDCLTAKLSGLQVAVETANLILDLSYVIEDKN", "note": "[H395R]", "effect of a mutation on the interaction": "decreasing interaction strength"}
    ]}
  ]
}
